The values that follow come from patent US20180162952A1 (AbbVie / Abbott, published 2018).

Where only a bound is given, the exact number is not on record here.

Test [1] concerns the target T1, hPTK7-His (soluble His-tagged human PTK7 extracellular domain) (human, UniProt Q13308 31-704).
T1 construct: also called PTK7-ECD-His; monomeric recombinant hPTK7-His (isoform a)
T1 sequence: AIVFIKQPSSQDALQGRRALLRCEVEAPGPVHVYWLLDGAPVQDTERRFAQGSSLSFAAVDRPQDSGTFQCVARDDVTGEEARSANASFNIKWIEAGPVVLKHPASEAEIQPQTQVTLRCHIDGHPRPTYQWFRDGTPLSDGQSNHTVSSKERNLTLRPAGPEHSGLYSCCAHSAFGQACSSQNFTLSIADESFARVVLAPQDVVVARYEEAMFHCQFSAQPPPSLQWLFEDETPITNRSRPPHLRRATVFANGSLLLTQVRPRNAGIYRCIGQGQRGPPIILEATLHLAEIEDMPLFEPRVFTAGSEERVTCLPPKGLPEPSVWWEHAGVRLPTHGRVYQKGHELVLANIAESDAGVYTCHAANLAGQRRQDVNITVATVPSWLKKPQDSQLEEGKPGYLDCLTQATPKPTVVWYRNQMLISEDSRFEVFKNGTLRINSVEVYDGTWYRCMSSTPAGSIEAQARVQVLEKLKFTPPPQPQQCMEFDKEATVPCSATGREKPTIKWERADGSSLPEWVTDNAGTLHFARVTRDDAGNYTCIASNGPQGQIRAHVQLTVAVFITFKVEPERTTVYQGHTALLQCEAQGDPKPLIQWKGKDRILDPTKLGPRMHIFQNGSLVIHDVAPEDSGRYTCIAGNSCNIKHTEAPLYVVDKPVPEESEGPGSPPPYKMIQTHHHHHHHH
The experiment in a line: Biacore (superscript B); column Affinity (nM). Background: Surface plasmon resonance follows binding to a sensor surface in real time, without labels.

In test [2] the target is T2, human PTK7, full length, expressed on transduced cells (human, UniProt Q13308 31-1070).
T2 sequence: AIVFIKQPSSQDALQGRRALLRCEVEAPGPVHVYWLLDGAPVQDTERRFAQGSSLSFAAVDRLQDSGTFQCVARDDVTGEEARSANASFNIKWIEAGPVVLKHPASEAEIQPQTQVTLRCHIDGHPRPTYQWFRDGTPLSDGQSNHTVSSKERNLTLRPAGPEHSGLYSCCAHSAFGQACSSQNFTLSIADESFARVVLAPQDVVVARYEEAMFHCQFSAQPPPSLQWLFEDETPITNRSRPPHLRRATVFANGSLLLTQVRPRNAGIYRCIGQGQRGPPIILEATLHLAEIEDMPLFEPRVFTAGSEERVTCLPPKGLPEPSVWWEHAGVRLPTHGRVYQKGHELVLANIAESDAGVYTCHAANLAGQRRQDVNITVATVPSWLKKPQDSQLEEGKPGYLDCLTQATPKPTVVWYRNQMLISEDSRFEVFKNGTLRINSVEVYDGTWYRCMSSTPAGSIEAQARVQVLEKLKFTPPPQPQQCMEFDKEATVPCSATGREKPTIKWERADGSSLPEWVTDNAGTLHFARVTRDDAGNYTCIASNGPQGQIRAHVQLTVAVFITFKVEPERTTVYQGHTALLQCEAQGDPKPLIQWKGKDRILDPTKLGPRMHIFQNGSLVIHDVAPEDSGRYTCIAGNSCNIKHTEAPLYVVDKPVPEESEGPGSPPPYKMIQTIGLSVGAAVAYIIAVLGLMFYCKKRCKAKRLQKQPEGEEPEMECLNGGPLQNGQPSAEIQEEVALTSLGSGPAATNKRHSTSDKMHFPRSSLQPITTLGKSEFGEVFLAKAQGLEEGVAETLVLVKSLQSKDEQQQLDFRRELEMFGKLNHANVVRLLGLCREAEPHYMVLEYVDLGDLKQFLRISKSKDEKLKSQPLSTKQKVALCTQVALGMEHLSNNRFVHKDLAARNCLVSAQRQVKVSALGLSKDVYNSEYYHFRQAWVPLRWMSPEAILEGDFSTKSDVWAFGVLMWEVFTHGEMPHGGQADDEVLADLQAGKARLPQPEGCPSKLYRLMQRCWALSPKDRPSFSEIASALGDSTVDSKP
The experiment in a line: cell-based or functional assay.

Test [3] has as its target T3, PTK7 ECD Ig domains 1-4 Fc fusion (human).
T3 chain: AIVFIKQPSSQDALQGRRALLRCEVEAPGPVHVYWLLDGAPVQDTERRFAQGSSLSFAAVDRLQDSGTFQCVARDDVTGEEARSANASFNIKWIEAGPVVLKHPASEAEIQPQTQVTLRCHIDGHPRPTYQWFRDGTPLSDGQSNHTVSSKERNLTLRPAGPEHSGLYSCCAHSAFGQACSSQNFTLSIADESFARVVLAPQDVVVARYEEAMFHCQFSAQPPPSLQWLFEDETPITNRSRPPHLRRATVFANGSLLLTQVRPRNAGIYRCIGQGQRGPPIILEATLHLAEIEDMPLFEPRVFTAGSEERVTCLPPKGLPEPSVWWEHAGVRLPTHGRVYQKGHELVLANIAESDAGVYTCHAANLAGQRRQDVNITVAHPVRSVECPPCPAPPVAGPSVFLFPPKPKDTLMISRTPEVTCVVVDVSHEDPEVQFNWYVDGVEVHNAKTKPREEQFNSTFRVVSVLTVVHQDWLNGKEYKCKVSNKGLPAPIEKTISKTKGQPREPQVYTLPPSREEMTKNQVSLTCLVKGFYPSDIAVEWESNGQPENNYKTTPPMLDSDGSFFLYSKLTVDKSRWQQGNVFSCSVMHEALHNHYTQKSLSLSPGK
The experiment in a line: ELISA, Ig-domain Fc fusion captured by anti-human IgG Fc. A general note: In an ELISA, binding on a coated surface is turned into a signal by an enzyme label.

B1: SC6.2.35 (antibody, V domains shown)
VH: QVQMQQSGAELMKPGASVKLSCKATGYTFTGYWIEWVKQRPGHGLEWIGEILPGSGRSNSNEKFKGKATFTADTSSNTAYMQLSSLTTEDSAIYYCARGKLSWGQGTLVTVSA
VL: DIVLTQSPASLAVSLGQRATISCRASESVDSFGNSFMHWYQQKPGQPPKLLIYAASNLGSGVPARFSGSGSGTDFSLNIHPVEEDDSAMYFCQQSKEVPRTFGGGSRLEIKR
notes: Murine monoclonal antibody from a hybridoma; also called H2.35; SC6.H2
As a reminder, the Kd is the constant that tells how readily two partners part at equilibrium. Read a low Kd as higher affinity. As for B1, the Kd in test [1] is less than 100 pM. For the same molecule, the “EC50, saporin (Fab-ZAP) cell killing, 293.PTK7 Cells” value in test [2] is 0.65 pM. Moreover, in test [3], the binding result is “binds”.

B2: SC6.10.2 (antibody, V domains shown)
VH: QVQLQQSGAELVRPGVSVKISCKGSGYRFTDYPIHWVKQSHAKSLEWIGIISTYYGDVTNNPKFRGKATMTVDKSSTTAYMELARLTSEDSAIYYCARNDLFAYWGQGTLVTVSA
VL: DIVMTQSQKFMSTSVGDRVNVTCKASQNVGTNVVWYQQKTGQSPKALIHSASYRYSGVPDRFTGSGSGTDFTLTLSNVQSEDLAEYFCQHYNSFPYTFGGGTKLEIKR
notes: Murine monoclonal antibody from a hybridoma; also called H10.2; H10
In test [1], B2 came in with a Kd of 5600 pM. Further, the “EC50, saporin (Fab-ZAP) cell killing, 293.PTK7 Cells” value in test [2] amounted to 1.1 pM. Moreover, the binding result in test [3] is listed as “binds”.
